Tested on: MS2 coat protein
Test: apparent KD of MS2 coat protein; designed switch direction (-1 OFF switch, 1 ON switch): 1; higher = weaker reporter binding
Summary of the method: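 Transcription of designed RNA switches on Illumina chips was done by stalled E. coli RNA polymerase. SNAP-549-labelled MS2 coat protein was then titrated in doubling steps from 0.7 or 1.5 nM to 3 µM, with steps of 0.8–1.5 h at the lowest and 10–20 min at the highest concentration. The per-design median over clusters of curve-fitted normalised fluorescence is reported as apparent KD.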

[1] = Eterna round: R95, input ligand: FMN 200 uM
[2] = Eterna round: R95, input ligand: microRNA oligo, concentration not stated
[3] = Eterna round: R95, input ligand: none
[4] = input ligand: microRNA oligo, concentration not stated

Sequence | apparent KD of MS2 coat protein [1] [nM] | apparent KD of MS2 coat protein [2] [nM] | apparent KD of MS2 coat protein [3] [nM] | apparent KD of MS2 coat protein (input ligand: FMN 200 uM) [nM] | apparent KD of MS2 coat protein [4] [nM] | apparent KD of MS2 coat protein (input ligand: none) [nM]
AACAUUCUAUCUGAGGAUAUCAUGAAAUAAACAUGAGGAUCACCCAUGUGCAGGAAAACUGCAUAUGAGAAGGCAGAUAGAUUGA [salish99_ss2_r3_022] (puzzle: Same State 2) | 44.9 | 1870 | 3320 | – | – | –
AAGAAAUCCGCAGGAUAUCCUAAGCCGGGCUUAGGAGAAGGGUGGCCACAUGAGGAUCACCCAUGUAAAAGCUGAAUCACAGCC [Aerququ] (Eterna round: R96, puzzle: Same State NG 1) | – | – | – | 237 | 388 | 523
AAGAAGACGAACAAGGAUAUGUCAAAGGAAACAUGAGGAUCACCCAUGUAGAGAUUGGAAAAGAAACAGAAGGUGUACAGAGAGA [JR_SS2_Sub006] (puzzle: Same State 2) | 18.7 | 33.2 | 24.5 | – | – | –
AAGCCUAAACGGCGAAAACGACAUGAGGAUCACCCAUGUACACAGGAUAUCAGCCUGCUACAGGCUGAGAAGGGUGAACCUAAA [Maisveon] (Eterna round: R96, puzzle: Same State NG 3) | – | – | – | 797 | 63.8 | 113
AAGCUCGUGUGAGGAUAUGCCGCCGUUUCGGCUGCAGAAGGUGCUACGUUACAUGAGGAUCACCCAUGUCUCUGUUGUUUCGUG [salish99_SSNG1_r04_953] (Eterna round: R96, puzzle: Same State NG 1) | – | – | – | – | 18.5 | –
AAGGGAUGAGCGUAGGAUAUAGGAGAAGUGACAUGAGGAUCACCCAUGUAAAAGGAGGGAUGAGACUAGAAGGACGAGGUAGGAG [JR_SS2_Sub059] (Eterna round: R96, puzzle: Same State 2) | – | – | – | 82.7 | 55.4 | 78.3
AAGGGAUGAGCGUAGGAUAUAGGAGAAGUGACAUGAGGAUCACCCAUGUAAAAGGAGGGAUGAGACUAGAAGGACGAGGUAGGAG [JR_SS2_Sub059] (puzzle: Same State 2) | 132 | 84.6 | 91.5 | – | – | –
AAGUGAUGGGUUAGUAACUGCUAGUAAGGACAUGAGGAUCACCCAUGUGAGUAACGAGCUUUUGCUCGUCUUAUAAA [JR_SHM208A_Sub020] (puzzle: Sensor for hsa-mir-208a) | 89.7 | 48.9 | 110 | – | – | –
AAUAUACAUGAGGAUCACCCAUGUUAGUAAAUGACAGGAUAUGGAAUAAAUAAAUAAUAACCAGAAGGGUCUAAUA [JMF's solution 2] (puzzle: Same State 1) | 16 | 24.9 | 28.5 | – | – | –
AAUUAUUAACAUGAGGAUCACCCAUGUAUUAUUAUUAACAAGCUUUGCUCUACAUGGGUGCUCGUCUUAUUUAUUAA [AthenaIerokomos] (puzzle: Sensor for hsa-mir-208a version 2) | 13.7 | 68.6 | 32.5 | – | – | –
AAUUCAAACAGAGGAUAUUGUUUAUCUCUAUUGCAAGAAGGCUGAUCUUACUACUUACUUAUGAAACAUGAGGAUCACCCAUGU [JR_SSNG1_Sub019] (Eterna round: R96, puzzle: Same State NG 1) | – | – | – | – | 29.3 | –
AAUUUAAUACAUGAGGAUCACCCAUGUAAAUUAAUUAAGAUCUAGGAUAUCAGCUCGAAUAGAGCUGAGAAGGAGAUCACAUGU [SSNG3/19-B1] (Eterna round: R96, puzzle: Same State NG 3) | – | – | – | – | 13.8 | –
ACAAGCUUUUCUGCAUUGAAAGGUUGAUAACAUGAGGAUCACCCAUGUUUAUAUGAAAAUAAUGCUCCUCGUCUUAU [JR_SHM208A_Sub094] (puzzle: Sensor for hsa-mir-208a) | 55.4 | 11.4 | 46.9 | – | – | –
ACAAGCUUUUCUGUAUUGAAAGGUGGGAUACAUGAGGAUCACCCAUGUUUUUUUGUUUAUUUUUUUCCUCGUCUUAU [JR_SHM208A_Sub088] (Eterna round: R96, puzzle: Sensor for hsa-mir-208a) | – | – | – | 46 | 36.5 | 37.2
ACAAGCUUUUCUGUAUUGAAAGGUGGGAUACAUGAGGAUCACCCAUGUUUUUUUGUUUAUUUUUUUCCUCGUCUUAU [JR_SHM208A_Sub088] (puzzle: Sensor for hsa-mir-208a) | 34.3 | 37.8 | 34.3 | – | – | –
ACAAGCUUUUUUGUAGUGAAAGGUGGGAUACAUGAGGAUCACCCAUGUAUUGUUGUUAAUAUUGGACCUCGUCUUAU [JR_SHM208A_Sub084] (puzzle: Sensor for hsa-mir-208a) | 22.1 | 14.2 | 22.5 | – | – | –
ACAGCCGGCACUGAGGAUAUUCAUAUUAAAACAUGAGGAUCACCCAUGUAGGCCAGAAGGCCUUGGGAGAAGGCAGGUCGGCUGA [Mat - Same State 2 - Mod of UCT - D64] (puzzle: Same State 2) | 18.8 | 229 | 391 | – | – | –
ACAUAGGUUUCAGGAUAUGGGUAAAUUCCCAACAUGAGGAUCACCCAUGUCCGUUGGGAUAACAUCCAGAAGGGAAGCCACAUA [MOD2 Eternabot Solution 1 (Score 87.5)] (Eterna round: R96, puzzle: Same State NG 2) | – | – | – | 215 | 88.1 | 390
ACAUGAAAUUGAGGAUAUUUUGUACCUACAUGUGACAUGAGGAUCACCCAUGUGGUAAGUAUAAGAAAGAAGGCAAAGAUAUGU [Equivalence 7 - Jieux - Same State NG 2] (Eterna round: R96, puzzle: Same State NG 2) | – | – | – | 25.6 | 30.8 | 64.9
ACAUGAGACGGAGGAUAUGUUGUACCUACAUGUGACAUGAGGAUCACCCAUGUGGUAAGUAUGAUACAGAAGGCCGAGAUAUGU [Equivalance 58 - Jieux - Same State NG 2] (Eterna round: R96, puzzle: Same State NG 2) | – | – | – | 13.6 | 13.2 | 18.9
ACAUGAGAGAUAGGAUAUCUUGUACCUACAUGUGACAUGAGGAUCACCCAUGUGGUAAGUAUGAGAGAGAAGGAUCAGAUAUGU [Equivalence 36 - Jieux - Same State NG 2] (Eterna round: R96, puzzle: Same State NG 2) | – | – | – | 14.1 | 14.3 | 21.2
ACAUGAGAGUGAGGAUAUAUAGUACCUACAUGUGACAUGAGGAUCACCCAUGUGGUAAGUAUGACAUAGAAGGCACAGAUAUGU [Equivalance 100 - Jieux - Same State NG 2] (Eterna round: R96, puzzle: Same State NG 2) | – | – | – | 37.9 | 71.4 | 84.2
ACAUGAGAGUGAGGAUAUGGUGUACCUACAUGUGACAUGAGGAUCACCCAUGUGGUAAGUAUGACUCAGAAGGCACAGAUAUGU [Equivalance 77 - Jieux - Same State NG 2] (Eterna round: R96, puzzle: Same State NG 2) | – | – | – | 16.2 | 59.4 | 103
ACAUGAGAGUUAGGAUAUGUUGUACCUACAUGUGACAUGAGGAUCACCCAUGUGGUAAGUAUGAGGCAGAAGGGACAGAUAUGU [Equivalence 46 - Jieux - Same State NG 2] (Eterna round: R96, puzzle: Same State NG 2) | – | – | – | 75.7 | 51.7 | 137
ACAUGAGGAUCACCCAUGUAACCAAGAGAGAGAGCACGGACGCAGGAUAUGCGGCGACGAGCGGAGCAGAAGGGCGCCUCAUAU [Alacarus NG 3 Attempt 1] (Eterna round: R96, puzzle: Same State NG 3) | – | – | – | 79.3 | 52 | 109
ACAUGAGGAUCACCCAUGUAUGCUCAGGAAACUGUGCAACGUGAGGAUAUGGAUCCUAAUUGGAUCCAGAAGGCAUGAAUUAUU [Fiskers NG3ss - 23] (Eterna round: R96, puzzle: Same State NG 3) | – | – | – | 41.5 | 170 | 418
ACCCACGACGGAGGAUAUGGGCACUCGGCGGAAUAAACCGCCAUAACAUGAGGAUCACCCAUGUCCCAGAAGGCCGUCGCAAUC [Esdirece] (Eterna round: R96, puzzle: Same State NG 2) | – | – | – | 109 | 404 | 712

Source: the supplement of paper PMC9170038
